Publication PMC2884949, “The outer membrane secretin PilQ from Neisseria meningitidis binds DNA”

Assays:
[1] = target: T1, PilQ25-354 (Neisseria meningitidis M1080, UniProt Q9JVW4 25-354); test: EMSA; 5 mM Mg2+; EMSA: 50 mM MOPS pH 7.5, 1 mM EDTA, 1 mM DTT, 5 mM MgCl2, 5% glycerol, 200 ng protein in 10 ul, 20 min room temperature; 6% PAGE; conditions: protein: recombinant, tags: His (N-terminal with pQE30), label: 5' 32P
T1 sequence: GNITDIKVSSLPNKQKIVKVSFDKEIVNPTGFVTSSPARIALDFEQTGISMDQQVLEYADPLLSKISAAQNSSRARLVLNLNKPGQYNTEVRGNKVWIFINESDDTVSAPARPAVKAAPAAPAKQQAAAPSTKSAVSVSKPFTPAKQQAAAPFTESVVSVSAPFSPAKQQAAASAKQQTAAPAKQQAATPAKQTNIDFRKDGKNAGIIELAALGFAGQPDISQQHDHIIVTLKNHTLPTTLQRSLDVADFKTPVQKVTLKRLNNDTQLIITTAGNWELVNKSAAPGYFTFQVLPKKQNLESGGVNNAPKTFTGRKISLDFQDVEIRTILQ

[2] = target: T2, PilQ352-761 (Neisseria meningitidis M1080, UniProt Q9JVW4 352-761); test: as above; conditions: protein: recombinant, tags: His (C-terminal with pET28b), label: 5' 32P
T2 sequence: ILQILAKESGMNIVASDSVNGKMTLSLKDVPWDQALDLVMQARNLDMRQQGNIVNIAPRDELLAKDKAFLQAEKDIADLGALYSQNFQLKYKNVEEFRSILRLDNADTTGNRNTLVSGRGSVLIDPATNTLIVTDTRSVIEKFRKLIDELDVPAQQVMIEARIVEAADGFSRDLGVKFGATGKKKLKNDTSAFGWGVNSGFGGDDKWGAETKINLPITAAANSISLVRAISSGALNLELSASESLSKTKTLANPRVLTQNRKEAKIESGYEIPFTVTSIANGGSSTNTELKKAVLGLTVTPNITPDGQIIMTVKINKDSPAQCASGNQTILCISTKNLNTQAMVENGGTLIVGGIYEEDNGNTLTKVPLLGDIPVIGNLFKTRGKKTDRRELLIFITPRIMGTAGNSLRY

[3] = target: T3, PilQ25-132 (Neisseria meningitidis M1080, UniProt Q9JVW4 25-132); test: as above; conditions: protein: recombinant, tags: His, label: 5' 32P
T3 sequence: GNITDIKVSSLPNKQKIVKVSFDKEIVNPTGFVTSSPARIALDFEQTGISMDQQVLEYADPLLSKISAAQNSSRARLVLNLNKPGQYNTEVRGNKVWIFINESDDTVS

[4] = target: T4, PilQ218-478 (Neisseria meningitidis M1080, UniProt Q9JVW4 218-478); test: as above; conditions: protein: recombinant, tags: His (N-terminal with pQE30), label: 5' 32P
T4 sequence: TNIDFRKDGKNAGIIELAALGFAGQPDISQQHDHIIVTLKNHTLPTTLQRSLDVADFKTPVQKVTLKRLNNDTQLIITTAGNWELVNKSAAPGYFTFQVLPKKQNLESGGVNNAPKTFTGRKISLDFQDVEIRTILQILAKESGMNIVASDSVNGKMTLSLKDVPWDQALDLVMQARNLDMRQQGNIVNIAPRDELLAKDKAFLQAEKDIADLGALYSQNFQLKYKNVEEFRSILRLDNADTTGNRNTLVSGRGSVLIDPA

[5] = target: T5, PilQ complex (native secretin) (Neisseria meningitidis M1080, UniProt Q9JVW4 25-761); test: Southwestern; whole-cell lysate, PilQ multimer band; EMSA: 50 mM MOPS pH 7.5, 1 mM EDTA, 1 mM DTT, 5 mM MgCl2, 5% glycerol, 200 ng protein in 10 ul, 20 min room temperature; 6% PAGE; conditions: chain copies: 12, label: 5' 32P, ss, 1 strand
T5 sequence: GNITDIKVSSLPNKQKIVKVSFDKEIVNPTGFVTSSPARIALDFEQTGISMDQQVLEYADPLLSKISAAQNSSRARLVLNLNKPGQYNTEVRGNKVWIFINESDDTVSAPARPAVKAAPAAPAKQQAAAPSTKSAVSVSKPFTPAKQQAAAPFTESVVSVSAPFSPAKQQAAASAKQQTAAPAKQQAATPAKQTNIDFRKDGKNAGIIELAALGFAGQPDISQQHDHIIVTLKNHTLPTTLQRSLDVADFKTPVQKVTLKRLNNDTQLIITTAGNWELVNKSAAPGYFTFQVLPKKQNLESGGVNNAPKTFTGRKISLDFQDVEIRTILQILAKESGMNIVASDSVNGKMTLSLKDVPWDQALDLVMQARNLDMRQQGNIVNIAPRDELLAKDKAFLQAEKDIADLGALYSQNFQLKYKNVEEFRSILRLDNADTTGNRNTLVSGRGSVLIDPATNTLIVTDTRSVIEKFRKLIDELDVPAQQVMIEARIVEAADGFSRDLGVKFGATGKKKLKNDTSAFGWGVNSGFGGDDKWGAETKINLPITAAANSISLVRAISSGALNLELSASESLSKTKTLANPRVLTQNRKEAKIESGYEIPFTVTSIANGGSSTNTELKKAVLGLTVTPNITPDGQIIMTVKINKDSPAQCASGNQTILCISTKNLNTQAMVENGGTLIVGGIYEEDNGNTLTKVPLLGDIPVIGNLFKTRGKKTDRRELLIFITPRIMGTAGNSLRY

Binder | binding result ([1]; ss, 1 strand) | binding result ([2]; ss, 1 strand) | binding result ([3]; ss, 1 strand) | binding result ([4]; ss, 1 strand) | binding result ([1]; blunt) | binding result ([2]; blunt) | binding result [5] | binding result ([4]; blunt) | binding result ([3]; blunt)
T2 (ssDNA) DNA: TGTTGTTGTTGTTGCCGTCTGAATTTGGTTCAGACGGCTGTTGTTGTTGTTG | binds | no binding | no binding |  |  |  |  |  | 
T4 (ssDNA) DNA: TGTTGTTGTTGTTGGCCTGTCATTTTGGATGACAGGCCTGTTGTTGTTGTTG | binds | no binding | no binding | no binding |  |  |  |  | 
GCCGATGCCGTCTGAATATCTTTCAGACGGCAGGCGGCGG (ssDNA) [T8] | binds | no binding |  | no binding |  |  |  |  | 
CCGCCGCCTGCCGTCTGAAAGATATTCAGACGGCATCGGC (ssDNA) [T7] | binds | no binding | no binding |  |  |  |  |  | 
T7+T8 hybrid (dsDNA) DNA 1: CCGCCGCCTGCCGTCTGAAAGATATTCAGACGGCATCGGC DNA 2: GCCGATGCCGTCTGAATATCTTTCAGACGGCAGGCGGCGG |  |  |  |  | binds | no binding |  |  | 
T1 (ssDNA) DNA: CAACAACAACAACAGCCGTCTGAACCAAATTCAGACGGCAACAACAACAACA | binds | no binding | no binding | no binding |  |  | binds |  | 
T1+T2 hybrid (dsDNA) DNA 1: CAACAACAACAACAGCCGTCTGAACCAAATTCAGACGGCAACAACAACAACA DNA 2: TGTTGTTGTTGTTGCCGTCTGAATTTGGTTCAGACGGCTGTTGTTGTTGTTG |  |  |  |  | binds | no binding |  | no binding | 
T3 (ssDNA) DNA: CAACAACAACAACAGGCCTGTCATCCAAAATGACAGGCCAACAACAACAACA | binds | no binding | no binding | no binding |  |  |  |  | 
T3+T4 hybrid (dsDNA) DNA 1: CAACAACAACAACAGGCCTGTCATCCAAAATGACAGGCCAACAACAACAACA DNA 2: TGTTGTTGTTGTTGGCCTGTCATTTTGGATGACAGGCCTGTTGTTGTTGTTG |  |  |  |  | binds | no binding |  |  | binds
